Assay results as given in article PMC6298560, “Staphylococcus aureus Cas9 is a multiple-turnover enzyme”.

T1: SauCas9 (Staphylococcus aureus, UniProt J7RUA5 1-1053)
T1 sequence: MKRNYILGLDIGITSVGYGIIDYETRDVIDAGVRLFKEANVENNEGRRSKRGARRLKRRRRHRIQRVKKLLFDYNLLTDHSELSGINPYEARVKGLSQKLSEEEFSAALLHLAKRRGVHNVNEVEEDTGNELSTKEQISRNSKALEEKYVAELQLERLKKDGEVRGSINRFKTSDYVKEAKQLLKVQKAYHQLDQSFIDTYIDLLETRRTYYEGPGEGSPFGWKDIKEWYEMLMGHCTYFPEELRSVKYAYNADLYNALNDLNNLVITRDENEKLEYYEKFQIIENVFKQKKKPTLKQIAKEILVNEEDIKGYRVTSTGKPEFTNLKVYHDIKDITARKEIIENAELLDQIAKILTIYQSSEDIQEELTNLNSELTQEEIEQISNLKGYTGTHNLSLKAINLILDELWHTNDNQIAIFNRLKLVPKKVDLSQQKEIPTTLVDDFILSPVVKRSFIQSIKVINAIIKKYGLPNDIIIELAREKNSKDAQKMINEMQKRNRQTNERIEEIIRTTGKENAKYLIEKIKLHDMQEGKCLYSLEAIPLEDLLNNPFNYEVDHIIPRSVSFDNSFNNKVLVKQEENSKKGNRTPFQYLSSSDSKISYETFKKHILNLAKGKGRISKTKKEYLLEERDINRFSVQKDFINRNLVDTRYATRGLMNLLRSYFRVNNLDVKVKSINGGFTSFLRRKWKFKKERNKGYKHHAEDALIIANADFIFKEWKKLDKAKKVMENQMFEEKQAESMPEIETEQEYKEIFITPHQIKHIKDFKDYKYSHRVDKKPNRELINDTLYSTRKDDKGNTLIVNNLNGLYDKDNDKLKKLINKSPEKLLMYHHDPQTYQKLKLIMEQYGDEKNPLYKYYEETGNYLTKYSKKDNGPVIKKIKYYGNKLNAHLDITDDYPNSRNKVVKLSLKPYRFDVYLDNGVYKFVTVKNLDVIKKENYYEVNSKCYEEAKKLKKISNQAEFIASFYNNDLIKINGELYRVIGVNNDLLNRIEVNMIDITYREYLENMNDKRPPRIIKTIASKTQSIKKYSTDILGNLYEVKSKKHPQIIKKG


What was measured:
SpyCas9 = SpyCas9 (Streptococcus pyogenes, UniProt Q99ZW2 1-1368); assay: EMSA; 10 mM Mg2+; EMSA: 1x NEBuffer 3.1 (100 mM NaCl, 50 mM Tris-HCl, 10 mM MgCl2, 100 ug/ml BSA, pH 7.9 at 25 C), 50 pM sgRNA, 40 min at 22 C, 6% native TBE gel in cold room; settings: protein: recombinant; label: 5'-32P; single guide RNA, GAAA tetraloop, three 3' stem-loops
Chain of SpyCas9 (Q99ZW2 whole entry): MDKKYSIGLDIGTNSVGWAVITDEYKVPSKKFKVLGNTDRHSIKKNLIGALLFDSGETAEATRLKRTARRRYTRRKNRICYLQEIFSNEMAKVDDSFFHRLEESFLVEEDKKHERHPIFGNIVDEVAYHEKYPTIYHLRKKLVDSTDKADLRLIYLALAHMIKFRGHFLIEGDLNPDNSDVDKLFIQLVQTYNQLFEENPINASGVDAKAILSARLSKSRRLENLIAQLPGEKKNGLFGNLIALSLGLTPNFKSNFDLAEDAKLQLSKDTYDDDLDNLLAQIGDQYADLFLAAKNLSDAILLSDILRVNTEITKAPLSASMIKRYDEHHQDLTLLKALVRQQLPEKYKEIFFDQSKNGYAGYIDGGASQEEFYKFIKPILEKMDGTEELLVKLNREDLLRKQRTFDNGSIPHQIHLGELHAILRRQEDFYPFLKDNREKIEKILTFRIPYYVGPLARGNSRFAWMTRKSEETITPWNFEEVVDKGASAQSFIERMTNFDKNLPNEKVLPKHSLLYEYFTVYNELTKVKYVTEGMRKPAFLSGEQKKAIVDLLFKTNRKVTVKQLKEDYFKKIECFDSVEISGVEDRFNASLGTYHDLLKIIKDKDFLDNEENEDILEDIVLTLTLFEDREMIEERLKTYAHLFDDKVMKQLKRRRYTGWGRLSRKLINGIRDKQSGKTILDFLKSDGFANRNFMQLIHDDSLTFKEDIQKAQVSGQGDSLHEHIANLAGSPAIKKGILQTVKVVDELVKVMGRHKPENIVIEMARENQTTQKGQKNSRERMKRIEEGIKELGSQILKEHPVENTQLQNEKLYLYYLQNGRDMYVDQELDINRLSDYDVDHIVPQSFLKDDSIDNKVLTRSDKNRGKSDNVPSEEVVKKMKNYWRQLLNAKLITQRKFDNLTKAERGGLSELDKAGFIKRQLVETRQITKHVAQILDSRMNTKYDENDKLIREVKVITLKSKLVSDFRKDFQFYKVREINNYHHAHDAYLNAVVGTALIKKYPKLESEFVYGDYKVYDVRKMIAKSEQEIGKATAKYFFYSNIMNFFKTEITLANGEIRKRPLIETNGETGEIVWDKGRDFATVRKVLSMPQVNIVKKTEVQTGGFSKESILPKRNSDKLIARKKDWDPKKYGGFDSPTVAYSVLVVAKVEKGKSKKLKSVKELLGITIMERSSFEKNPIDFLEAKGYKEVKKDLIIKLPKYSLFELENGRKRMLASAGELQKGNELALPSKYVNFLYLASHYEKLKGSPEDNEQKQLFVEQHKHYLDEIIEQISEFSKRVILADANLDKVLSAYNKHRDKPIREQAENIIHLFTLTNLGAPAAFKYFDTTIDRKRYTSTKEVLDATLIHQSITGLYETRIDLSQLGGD

SauCas9 = target: T1, SauCas9; assay: as above; settings: protein: recombinant; label: 5'-32P; single guide RNA, GAAA tetraloop, two 3' stem-loops

| Binder | Kd (SpyCas9) [nM] | Kd (SauCas9) [nM] |
| --- | --- | --- |
| S. pyogenes sgRNA (structured_RNA) RNA: GUGAAAGUUAAUCGAACUGUGUUUUAGAGCUAGAAAUAGCAAGUUAAAAUAAGGCUAGUCCGUUAUCAACUUGAAAAAGUGGCACCGAGUCGGUGCUUUU | 0.29 ± 0.08 | – |
| S. aureus sgRNA (structured_RNA) RNA: GUGAAAGUUAAUCGAACUGUGUUUUAGUACUCUGGAAACAGAAUCUACUAAAACAAGGCAAAAUGCCGUGUUUAUCUCGUCAACUUGUUGGCGAGAU | – | 3.4 |
